The subject of one data set is R7 GLYAT. The data set is described as follows: inhibition of R7 GLYAT with respect to glyphosate. The format is biochemical, B. licheniformis. The source says: See PDB:2JDD for the atomic coordinates and structure factors of the X-ray crystal structure of the ternary complex of R7 GLYAT with AcCoA and 3PG and PDB:2JDC for the atomic coordinates and structure factors of the X-ray crystal structure of the binary complex of R7 GLYAT with oxidized CoA and sulfate bound in the glyphosate binding pocket. See Tables 11 and 12 for the atoms of the R7 GLYAT variant polypeptide and of AcCoA that contact 3PG (i.e., the substrate binding cavity) and the residues of R7 that contact AcCoA, respectively.

The conditions of data set [1]: substrate glyphosate; cited from earlier work.

The values below come from patent publication US20120288914A1, “CRYSTAL STRUCTURE OF GLYPHOSATE ACETYLTRANSFERASE (GLYAT) AND METHODS OF USE” (PIONEER HI BRED INTERNATIONAL INC., priority 2009, published 2012).

As a reminder, the Km is the substrate concentration at which the rate is half of its maximum.

Take `O=C(O)[C@H](O)COP(=O)(O)O` [3-phosphoglycerate]: the mode of inhibition entry in the data set on R7 GLYAT is recorded as “competitive inhibitor”.

B1: R11: GLYAT variant from the eleventh round of DNA shuffling; SEQ ID NO: 2 (protein)
chain: MIEVKPINAEDTYDLRHRVLRPNQPIEACMFESDLTRSAFHLGGFYGGKLISVASFHQAEHSELQGKKQYQLRGVATLEGYREQKAGSSLVKHAEEILRKRGADMIWCNARTSASGYYRKLGFSEQGEVFDTPPVGPHILMYKRIT
modifications: R11 GLYAT variant polypeptide
In the case of B1, in data set [1], the Km is 55 µM.

B2: native GLYAT: naturally occurring glyphosate N-acetyltransferase from Bacillus licheniformis; SEQ ID NO: 3 (protein, listed as Bacillus licheniformis)
chain: MIEVKPINAEDTYEIRHRILRPNQPLEACMYETDLLGGAFHLGGYYRGKLISIASFHKAEHSELEGEEQYQLRGMATLEGYREQKAGSTLIRHAEELLRKKGADLLWCNARTSVSGYYEKLGFSEQGEVYDIPPIGPHILMYKKLT
modifications: ST401 GAT
With B2, in data set [1], the Km was 1270 µM.

B3: R7: GLYAT variant resulting from seven rounds of DNA shuffling of a native GLYAT polypeptide; SEQ ID NO: 1 (protein)
chain: MIEVKPINAEDTYELRHRILRPNQPIEACMFESDLLRGAFHLGGYYGGKLISIASFHQAEHSELQGQKQYQLRGMATLEGYREQKAGSSLIKHAEEILRKRGADLLWCNARTSASGYYKKLGFSEQGEVFDTPPVGPHILMYKRIT
modifications: R7 GLYAT variant polypeptide
B3: in data set [1], the Michaelis-Menten constant (Km) was 240 µM.
